Our source for the Kd values is PMC11194070, “Despite the odds: formation of the SARS-CoV-2 methylation complex” (Nucleic Acids Research, 2024).

The assay concerns the target T1, SARS-CoV-2 nonstructural protein 10 (nsp10) (SARS-CoV-2, UniProt P0DTD1 4254-4392).
T1 construct: also called 2H15N-nsp10; apo-nsp10
The assay is described as follows: MST. Particulars: both partners purified.

B1: nsp14ExoN, nsp14 without the methyltransferase domain but retaining the exonuclease activity (domain or fragment)
chain: AENVTGLFKDCSKVITGLHPTQAPTHLSVDTKFKTEGLCVDIPGIPKDMTYRRLISMMGFKMNYQVNGYPNMFITREEAIRHVRAWIGFDVEGCHATREAVGTNLPLQLGFSTGVNLVAVPTGYVDTPNNTDFSRVSAKPPPGDQFKHLIPLMYKGLPWNVVRIKIVQMLSDTLKNLSDRVVFVLWAHGFELTSMKYFVKIGPERTCCLCDRRATCFSTASDTYACWHHSIGFDYVYNPFMIDVQQWGFTGNLQSNHDLYCQVHGNAHVASCDAIMTRCLAVHECFVKRVDWTIE
With B1, binding was characterised by a dissociation constant (Kd) of 4.55 ± 2.68 µM.
